Experimental findings from publication PMC8776730 (Nature Communications, 2022) are described below.

Data set [1] has as its system Recombinant Human Fibroblast Activation Protein-α (FAP-α). Kind of data set: FAP-α in buffer: 50 mM Tris, 1 M NaCl, 1 mg/mL, BSA, pH 7.5. As to conditions: up to 12 h.
In data set [2] the test system is MIA PaCa-2 cells. The data set can be described thus: Cellular imaging (CLSM) of FITC-labelled molecules. The class given is cell-based. Conditions: FITC-labelled molecules, MIA PaCa-2 cells, 1 h incubation, CLSM. The method, then:
To further confirm this hypothesis, the M1 and M2 were equally labeled by FITC for cell imaging (Fig. 5b). To simulate the dynamic physiological condition, the cell culture medium was replaced every 15 min. After 1 h of incubation with M1 and M2 at the same molecule molar concentration, there occurred significant differences between the two molecules (Fig. 5c). […] The huge difference can be explained by the fact that the secondary assembly rate broke the balance between the targeted ligand and receptor, and thus tended to a stable assembly interaction. The retention efficiency depended on the assembly rate constant Ka. Meanwhile, the rapid dynamic assembly of BIVA probe in situ around the cell membrane, and contributed to the efficient formation and retention of nanofibers on the cell profile. When the incubation time was delayed up to 2 h, some components could be endocytosed into the cells, but most of them were found on the membranes (Supplementary Fig. 18). […] Then, the isolated cells were collected and lysed, the extracted cell membrane fragments were stained with ThT. […] In order to verify the influence of the addition of the targeting module of the probe molecules, we explored the imaging of R-M1 and M4 on cells.
(§1) Fig. 5 The BIVA effect with enhanced targeting to pancreatic tumor cell for boundaries imaging. a Illustration of BIVA effect: active targeting and assembly/aggregate induced retention (AIR) effect. b Chemical structure of FITC labeling. c 2D and 3D confocal images of M2 with active targeting property and M1 with BIVA effect on MIA PaCa-2 cells after incubation for 1 h. d The distribution of M1 on MIA PaCa-2 cell. e ThT staining of the lysed cell membrane of MIA PaCa-2. f, Illustration of migration inhibition after treated by BIVA probe. g The image of the migrated cells after treatment of PBS (blank), M2, M4, and M1. Scale bar: 100 μm. h The pie diagram of quantitative statistical calculation of the migrated cells (blue) in different groups. The blank control was set as 100% migrated cells.
MIA PaCa-2 cells were digested with trypsin, counted with cell counting plate, diluted to 1 × 10^4 with DMEM medium, and 1 mL to 1 cm diameter confocal microscope dish was taken. The cells were incubated in […] atmosphere for 24 h. The medium containing M1 and M2 (50 μM) was replaced and incubated with the cells for 2 h. The cells were washed with PBS for 3 times. CLSM (Zeiss 710) was used to image cells under 40 × objective, excitation = 488 nm, and emission >520 nm.
Supplementary Fig. 19 ∣ CLSM images of Miapaca-2 cells treated with different molecules or M1 under different conditions. […]

In data set [3] the test system is MIA PaCa-2 cells. Kind of data set: Transwell migration assay. The format is cell-based. Conditions: MIA PaCa-2, 150 μM, 24 h; blank control = 1. Here is the method: as §1
In order to further understand the contribution of the active targeting and AIR effect during locating of the cells, the cell transwell experiment was used to quantitively evaluate interference of the cell migration based on M1, M2, and M4 (Fig. 5f). As expected, untreated cells were easy to migrate to the lower chamber, while the cells treated with active targeting molecule M2 and assembled molecule M4, the migration of cell were reduced. Under the same molar concentration, the M1 treatment group had the most inference on cell migration (Fig. 5g). […] Based on those results, we speculate M1 can be more enriched in the tumor site and form fibers through assembly to inhibit tumor cell migration compared to M2 and M4 which have no ability to target and adhere on the cell membrane.
Transwell migration assay occurred in chemotaxis chambers containing 24 wells. […] Bottom chambers contained DMEM medium containing 10% FBS. After 24 h of treatment with M1, M2, and M4 (150 μM), we fixed cells using 4% paraformaldehyde and stained with 0.25% crystal violet solution. The stained cells were counted using a microscope.
Supplementary Fig. 20∣ The quantitative results of the migrated cells after treatment of PBS (blank), M2, […] and
M1 (Fig 5g). The mean of results of fiveparallel experiments is shown and data were expressed as mean ± SD (n=5).
pM1 = 5.85E-06, pM2 = 5.94E-05, pM4 = 3.16 E-04, Statisticalanalysis: one-way ANOVA followed by post hoc Tukey’s
(1 picture or pasted object on this page, not shown here)

Data set [4] in a line: Critical assembly concentration (CAC) by pyrene fluorescence probe. The format is physicochemical. The text has this: In order to study the molecular design and their assembly behavior, we modular designed and synthesized seven molecules (Table 1), which respectively were BIVA probe: M1 (mPEG-GPAKLVFFGC(IR783)GRGD); the non- FAP-α tailoring molecule: M2 (mPEG-AGGKLVFFGC(IR783)GRGD) scrambled response tailoring motif of Gly-Pro-Ala with Ala-Gly-Gly; the non-labeling molecule of M1: M3 (mPEG-GPAKLVFFGCGRGD) removed IR783 labeling; FAP-α tailoring residue of M1: R-M1 (AKLVFFGC(IR783)GRGD); the non-targeting molecule: M4 (mPEG-GPAKLVFFGC(IR783)GDTG) scrambled targeting tailoring motif of Arg-Gly-Asp with Asp-Thr-Gly; the non-labeling molecule of M2: M5 (mPEG-AGGKLVFFGCGRGD) removed IR783 labeling; FAP-α tailoring residue of M3: R-M3 (AKLVFFGCGRGD). All the synthesized procedure (Supplementary Fig. 1) and characterizations of these seven molecules can be found in SI (Supplementary Figs. 2–8). […] Without IR783 labeling, molecules of M3 and M5 decreased the CAC value in solution relative to M1 and M2, which could be attributed to the proximity of the steric hindrance of hydrophilic IR783 to the self-assembly motif (Supplementary Fig. 9). […] The CAC was quantitatively calculated by fluorescence probe of pyrene.

Data set [5] addresses T1, FAP-α (Homo sapiens, UniProt Q12884).
T1 construct: purchased R&D SYSTEM
T1 sequence (Q12884 1-760): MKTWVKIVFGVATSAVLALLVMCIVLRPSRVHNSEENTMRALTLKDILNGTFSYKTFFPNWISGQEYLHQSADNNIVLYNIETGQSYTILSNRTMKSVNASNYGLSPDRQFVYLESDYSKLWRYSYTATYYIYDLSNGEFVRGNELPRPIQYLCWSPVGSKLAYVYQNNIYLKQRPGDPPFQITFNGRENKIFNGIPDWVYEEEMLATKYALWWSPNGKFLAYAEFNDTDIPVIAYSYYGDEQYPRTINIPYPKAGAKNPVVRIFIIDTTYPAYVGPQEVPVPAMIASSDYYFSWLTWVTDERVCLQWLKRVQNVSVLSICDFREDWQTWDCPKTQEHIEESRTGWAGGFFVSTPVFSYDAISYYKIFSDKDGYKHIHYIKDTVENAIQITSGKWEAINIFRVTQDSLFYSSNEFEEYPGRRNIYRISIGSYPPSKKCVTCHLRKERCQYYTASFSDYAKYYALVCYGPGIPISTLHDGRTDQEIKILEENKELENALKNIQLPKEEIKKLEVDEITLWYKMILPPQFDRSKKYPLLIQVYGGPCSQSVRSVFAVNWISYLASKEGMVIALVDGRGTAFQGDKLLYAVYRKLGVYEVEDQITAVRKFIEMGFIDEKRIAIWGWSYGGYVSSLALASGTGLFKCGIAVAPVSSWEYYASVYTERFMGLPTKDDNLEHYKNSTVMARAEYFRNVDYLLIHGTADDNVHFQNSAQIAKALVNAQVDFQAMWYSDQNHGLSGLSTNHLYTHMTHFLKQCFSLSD
Kind of data set: FAP-α tailoring (cleavage) followed by HPLC and MALDI-TOF. The format is biochemical. Conditions: 100 μM molecule, FAP-α 50 μM, 12 h; buffer 50 mM Tris, 1 M NaCl, 1 mg/mL BSA, pH 7.5; HPLC (M3, M5), MALDI-TOF (M1). The text has this:
To further investigate the FAP-α specific tailoring and BIVA probe assembly in situ simultaneously (Fig. 4a), the high-performance liquid chromatography (HPLC), TEM, and matrix-assisted laser desorption/ionization time-of-flight (MALDI-TOF) mass spectrometry were applied for the characterizations purpose. To specify the cutting of the response tailoring motif (Gly-Pro-Ala), pre-synthesized molecules of R-M3, M3 and M5 were set as controls. […] Comparing the residues peaks with R-M3, the primary sharp peak at 27.4 min can be identified by the R-M3 control (27.6 min). […] The retention time of M1 after co-incubation with inactivated FAP-α was similar to that of M3 (Supplementary Fig. 14). After hydrolyzed by FAP-α, the residues of M1 in situ assembled into nanofibers structures under the complex buffer (Fig. 4c and Supplementary Fig. 15). […] In order to further evaluate the specificity of M1 for different enzymes, including FAP-α, pepsin, pancreatin, lipase, and BSA, we used ThT (Thioflavin T) as a detection probe (Fig. 4e).
Fig. 4 The FAP-α specific molecule tailoring and inducing in situ assembly. a The illustration the working mechanism of BIVA probe based on FAP-α catalytic hydrolysis. b HPLC curves of M3 and M5 after incubation with FAP-α in buffer. R-M3, M3 and M5 were synthesized controls. The TEM image (c), and the MALDI-TOF (d), results of M1 after tailoring by FAP-α in buffer, the red arrows represent the assembled fibrils of M1 after incubation with FAP-α. e The enzyme specificity of M1 in buffer. Buffer: 50 mM Tris, 1 M NaCl, 1 mg/mL, BSA, pH 7.5; Concentration of M1 and M3: 100 μM; Concentration of FAP-α: 50 μM; incubation time: 12 h. […]

Data set [6] concerns MIA PaCa-2 tumor. Conditions: mouse, in vivo, iv, 16 mg/kg. The method, then:
In order to reduce systemic error and individual difference, we constructed the subcutaneous pancreatic cancer model in mice for quantitatively calculating of the metabolic data.
All the animal experiments were performed in accordance with the Guide for the Care and Use of Laboratory Animals approved by the Committee for Animal Research of the National Center for Nanoscience and Technology. The MIA PaCa-2 tumor-bearing mice were intravenously injected with ICG, M1 and M2 (16 mg/kg), respectively for in vivo fluorescence imaging with in vivo spectrum imaging system. Finally, mice were sacrificed to collect the major organs and tumors for ex vivo fluorescence imaging.

The conditions of data set [7]: mouse, in vivo, iv, 16 mg/kg.

On to mPEG-AGGKLVFFGCGRGD, for which the not cleaved entry in data set [1] is listed as “no change of the retention peak”.

As to “mPEG-GPAKLVFFGC(IR783)GDTG [M4, the non-targeting molecule]”, the “fluorescence signal on the cell membrane” value in data set [2] is on record as “only a small amount of fluorescence signal”. For the same molecule, the “emigrate (migrated cells relative to blank)” value in data set [3] is 0.5282.

Regarding “mPEG-AGGKLVFFGCGRGD [M5, the non-labeling molecule of M2]”, the “Critical assembly concentration (CAC)” value in data set [4] (aqueous solution, analyzed based on pyrene fluorescence) was more than 332.7 µM. The “pyrene I1/I3” value was determined as 1.152 in data set [4] (conc 100 μM); 1.176 in data set [4] (conc 200 μM); 1.178 in data set [4] (conc 300 μM); 1.119 in data set [4] (conc 400 μM); 1.173 in data set [4] (conc 500 μM); 1.077 in data set [4] (conc 600 μM). Moreover, the “pyrene I1/I3” value was found to be 1.029 in data set [4] (conc 700 μM), 1.021 in data set [4] (conc 800 μM) and 0.975 in data set [4] (conc 900 μM). In addition, in data set [5], the “tailoring (cleavage) by FAP-α” value is given as “no change of the retention peak”.

Turning to `CC1(C)C(/C=C/C=C/C=C/C=C2\N(CCCCS(=O)(=O)O)c3ccc4ccccc4c3C2(C)C)=[N+](CCCCS(=O)(=O)[O-])c2ccc3ccccc3c21` [ICG, indocyanine green], in data set [6], the “time to complete metabolic clearance” value is reported as not above 8 h. The “blood circulation half-life (t1/2)” value in data set [7] is on record as 2.5 ± 0.5 min.

As to mPEG-GPAKLVFFGCGRGD, the cleaved bond entry in data set [1] was “Pro-Ala”.
